# Laboratory results reported in patent US20250250320A1 (UNIVERSITE CATHOLIQUE DE LOUVAIN, published 2025).
# T1: recombinant complete extracellular domain of TpoR with mature glycans (human, UniProt P40238 26-490, mature glycans)
# T1 construct: Purified recombinant protein used in HDx-MS; also called TpoR ECD; D1D2D3D4
# T1 sequence: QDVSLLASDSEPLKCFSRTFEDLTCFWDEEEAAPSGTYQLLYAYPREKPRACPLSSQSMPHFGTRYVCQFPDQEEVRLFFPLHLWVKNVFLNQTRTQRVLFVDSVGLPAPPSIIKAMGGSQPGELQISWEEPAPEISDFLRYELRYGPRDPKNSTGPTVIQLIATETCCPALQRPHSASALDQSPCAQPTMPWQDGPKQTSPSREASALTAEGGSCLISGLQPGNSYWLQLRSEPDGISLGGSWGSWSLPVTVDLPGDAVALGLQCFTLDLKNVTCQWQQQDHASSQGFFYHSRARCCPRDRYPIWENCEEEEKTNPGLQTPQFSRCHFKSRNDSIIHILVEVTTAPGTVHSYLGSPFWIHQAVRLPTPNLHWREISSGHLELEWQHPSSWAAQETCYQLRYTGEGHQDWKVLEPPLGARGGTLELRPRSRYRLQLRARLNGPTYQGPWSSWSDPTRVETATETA
# T2: TpoR D1D2 (sD1D2) with immature glycans, produced with CALR del52 in Drosophila S2 (Schneider) cells (human, UniProt P40238 26-283, limits assumed, immature glycans (Asn117))
# T2 construct: Purified as a complex with CALR del52 for HDx-MS; also called immature TpoR
# T2 sequence: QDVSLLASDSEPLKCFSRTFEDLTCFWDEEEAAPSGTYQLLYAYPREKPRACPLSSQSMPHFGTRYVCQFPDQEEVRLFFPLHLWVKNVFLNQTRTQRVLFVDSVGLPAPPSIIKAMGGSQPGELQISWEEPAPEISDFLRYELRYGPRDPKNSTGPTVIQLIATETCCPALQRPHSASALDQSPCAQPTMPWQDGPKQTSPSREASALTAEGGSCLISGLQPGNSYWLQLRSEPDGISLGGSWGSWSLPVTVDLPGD
# Tests used:
# [1] = biological target: CALR del52 (human calreticulin mutant L367fs*46), full length, no tag stated (human); assay: flow cytometry on living Ba/F3 cells with human TPOR and CALR mutant after adding the Fc fusion to the medium; concentration not given
# [2] = biological target: T1, recombinant complete extracellular …; assay: HDx-MS of mature TpoR ECD alone or with CALR del52
# Description: Hydrogen-Deuterium Exchange Mass Spectrometry (HDx-MS): Hydrogen-Deuterium Exchange Mass Spectrometry was performed with a Waters nanoAcquity UPLC with HDx technology coupled with Synapt G2-Si. All purified recombinant proteins were used at 20 μM concentration in equilibration buffer (5 mM K2HPO4, 5 mM KH2PO4 dissolved in H2O, pH 7). For interaction analysis between recombinant mature D1D2D3D4 and CALR del52, proteins were first mixed together at a 1:1 molarity for 30 minutes at room temperature followed by 3 hours at 4° C. Proteins were then kept at 0° C. Labelling was performed with a 20-fold dilution of samples in labelling buffer (5 mM K2HPO4, 5 mM KH2PO4 dissolved in D20, pD 7) for 6 different incubation times (0, 0.25, 1, 5, 20 and 60 minutes) at 20° C. After incubation, the reaction was quenched using a 1:1 dilution in the quench buffer (0.05 M K2HPO4, 0.05 M KH2PO4 with 30 mM TCEP, pH 2.3) prior to injection into a pepsin column (Enzymate BEH Pepsin 2.1×30 Column, Waters CAT. 186007233) with dynamic flowrate of 150-75 μL/min. […] The peptides identified were further analyzed with DynamX 3.0 (Waters) using a tolerance of 10 ppm, a maximum length of 35 a.a., a minimum products per amino acid of 0.2 and requiring that each peptide was identified in 3 out of 3 replicates. […] Data was statistically analyzed using Deuteros 2.0 with peptide-level significance testing (Lau et al., 2021). […]
# [3] = biological target: the molecule itself; assay: native gel with or without DTT (self-association)
# [4] = biological target: T2, TpoR D1D2 (sD1D2) with immature …; assay: complex co-produced in S2 cells, size-exclusion chromatography, HDx-MS
# From the text: All peptides were visually validated based on retention time, drift time and isotopic m/z. Data was statistically analyzed using Deuteros 2.0 with peptide-level significance testing (Lau et al., 2021).
# Subsequently, CALR del52-D1D2 produced as a complex in Schneider cells was purified. Briefly, the extracellular domain of the human TpoR and human CALR mutant del52 produced in Drosophila S2 cells (Thermo Fisher Scientific) were fractionated by using size-exclusion chromatography by loading on a Superdex 200 Increase 10/300 column (GE Healthcare). Elution was performed at 0.5 mL/min with buffer TNG (Tris-NaCl-glycerol) pH 7.5, and 0.5 mL fractions were collected and analyzed by sodium dodecyl sulfate-polyacrylamide gel electrophoresis and western blot. Fraction proteins were immunoprecipitated with anti-His5 antibody (Qiagen) and treated with Endoglycosidase-H (NEB) or N-glycosidase F (NEB). HDx-MS was used to detect all interaction sites between CALR del52 and TpoR D1D2 (sD1D2) produced in the same cells. […] Importantly, this region was not involved in binding of mature TpoR as shown above, confirming that it is specifically involved in interaction with immature glycans. […]
# [5] = biological target: the molecule itself; assay: native gel of CALR species with or without DTT (self-association)
molecule,measurement,setting,value
D1-Fc (TPOR D1 domain fused through its C-terminus to an Fc fragment) (from UniProt P40238 26-121) (Fc fusion),reduction of the level of CALR mutant at the cell surface,[1],> 50%
"CALR del52 (human calreticulin mutant L367fs*46), full length, no tag stated (other, also called CALR mutant; mutant CALR) EPAVYFKEQFLDGDGWTSRWIESKHKSDFGKFVLSSGKFYGDEEKDKGLQTSQDARFYALSASFEPFSNKGQTLVVQFTVKHEQNIDCGGGYVKLFPNSLDQTDMHGDSEYNIMFGPDICGPGTKKVHVIFNYKGKNVLINKDIRCKDDEFTHLYTLIVRPDNTYEVKIDNSQVESGSLEDDWDFLPPKKIKDPDASKPEDWDERAKIDDPTDSKPEDWDKPEHIPDPDAKKPEDWDEEMDGEWEPPVIQNPEYKGEWKPRQIDNPDYKGTWIHPEIDNPEYSPDPSIYAYDNFGVLGLDLWQVKSGTIFDNFLITNDEAYAEEFGNETWGVTKAAEKQMKDKQDEEQRTRRMMRTKMRMRRMRRTRRKMRRKMSPARPRTSCREACLQGWTEA",binding result,[2],binds
same,binding result,[3],binds
same,binding result,[4],binds
"CALR Δc-tail (other, the C-tail is absent) EPAVYFKEQFLDGDGWTSRWIESKHKSDFGKFVLSSGKFYGDEEKDKGLQTSQDARFYALSASFEPFSNKGQTLVVQFTVKHEQNIDCGGGYVKLFPNSLDQTDMHGDSEYNIMFGPDICGPGTKKVHVIFNYKGKNVLINKDIRCKDDEFTHLYTLIVRPDNTYEVKIDNSQVESGSLEDDWDFLPPKKIKDPDASKPEDWDERAKIDDPTDSKPEDWDKPEHIPDPDAKKPEDWDEEMDGEWEPPVIQNPEYKGEWKPRQIDNPDYKGTWIHPEIDNPEYSPDPSIYAYDNFGVLGLDLWQVKSGTIFDNFLITNDEAYAEEFGNETWGVTKAAEKQMKDKQDEEQR",binding result,[5],no binding
